Measurements published in patent US9732101B2, “Bioreversible boronates for delivery of molecules into cells” (WISCONSIN ALUMNI RESEARCH FOUNDATION, priority 2012, dated 2017).

Tests used:
[1] = test system: Pro-5 cells; assay: Cellular internalization by flow cytometry; format: cell-based, Chinese hamster
Procedure: (§1) Cell lines were obtained from American Type Culture Collection (Manassas, Va.) and were maintained according to the recommended procedures. Cells were grown in a cell culture incubator at 37° C. under CO2 (5% v/v) in flat-bottomed culture flasks. Cell medium was supplemented with GIBCO fetal bovine serum (FBS) (10% v/v), penicillin (100 units/mL), and streptomycin (100 μg/mL) in the appropriate cellular medium as follows: Pro-5, MEM α+ribonucleosides+deoxyribonucleosides; Lec-2, MEM α-ribonucleosides-deoxyribonucleosides; and K562, RPMI 1640. Cells were counted by hemocytometry for dispensing into 12-well plates (Corning Costar, Lowell, Mass.) or 8-well chambered coverglass slides (Nuc Lab-Tek II, Thermo Scientific).
(§2) BODIPY-FL was excited with a 488 nm solid-state laser and the emission was collected with a 530/30 bandpass filter. To collect the most reproducible data, for every flow cytometry experiment, the sensitivity (voltage) of the photomultiplier tube was set for all data collections using mid-range Rainbow beads from Spherotech (Lake Forest, Ill.) to a predetermined fluorescence target value. At least 10,000 cellular events were acquired for each sample. Data were analyzed using FlowJo 8.1.3 (Treestar, Ashland, Oreg.).
(§3) The day prior to an experiment, Pro-5 and Lec-2 cells were plated in 12-well plates at 1×10^5 cells/well. The day of the experiment, the appropriate amount of fructose was dissolved into the cellular medium to obtain a final fructose concentration of 250 mM, and the medium was passed through a 0.45-μm syringe filter from Whatman (Piscataway, N.J.). Non-fructose-containing medium was filtered likewise. Stock solutions of fluorescently labeled ribonucleases were diluted into the cell culture to a final concentration of 5 μM. Ribonucleases were incubated with cells for 4 h. Cells were then rinsed with PBS (2×400 μL), removed from the cell culture plate with trypsin (400 μL, 0.05% (1×) with EDTA; Invitrogen, Carlsbad, Calif.), placed in flow cytometry tubes containing 80 μL of FBS, and incubated on ice until analyzed by flow cytometry. Final fluorescence values were divided by the percent fluorophore labeling of the ribonuclease to determine the corrected value of fluorescence. Experiments were run twice in triplicate unless otherwise indicated. Data is illustrated in FIG. 4A and FIG. 4C.

[2] = test system: Lec-2 cells; assay: Cellular internalization by flow cytometry; format: cell-based, Chinese hamster
Procedure: as §1, §2, §3

[3] = Heparin-affinity assay (retention on immobilized heparin column); format: binding; conditions: for retention on column of heparin in presence of fructose: 0.10 M fructose in elution buffer
Procedure: To assess the affinity of boronated proteins for oligosaccharides the retention of boronated proteins compared to unmodified protein can be measured on a heparin column.
For example, the affinity of unmodified and benzoboroxole-boronated RNase A for heparin was assessed by retention on a 1.0-mL HiTrap Heparin HP column (GE Healthcare, Piscataway, N.J.). Unmodified and benzoboroxole-boronated RNase A were mixed in a 1:1 ratio (2.0 mg each) in DPBS, and the resulting solution was loaded onto the column. The column was washed with 5 mL of PBS, followed by elution with 45 mL of a linear gradient of NaCl (0.0-1.0 M) in PBS. Elution was monitored by absorbance at 280 nm, and eluted proteins were identified by mass spectrometry. FIG. 2 illustrates an elution profile of a mixture of unmodified RNase A and benzoboroxole-boronated RNase A from a column of immobilized heparin (solid lines). A small amount of unmodified RNase A was apparent in peak B (FIG. 2). It is currently believed that benzoboroxole-boronated RNase A was able to complex to a small amount of unmodified RNase A and extend its elution time. The same assay was then repeated with 100 mM fructose in both buffers (FIG. 2, dashed line). To make fructose-supplemented buffers, fructose (18 g, 100 mmol) was added to 100 mL of a 10× stock solution of PBS, either no additional NaCl or NaCl (58.4 g, 1.00 mol) was added, and both buffers were diluted to a final volume of 1 L and adjusted to pH 7.4.

[4] = test system: 6-FAM-dArUdAdA-6-TAMRA; assay: Ribonucleolytic activity assay; format: biochemical; conditions: relative to unmodified RNase A; 0.10 M MES-NaOH buffer, pH 6.0, NaCl 0.10 M
Procedure: Assays were carried out at ambient temperature in 2 mL of 0.10 M MES-NaOH buffer, pH 6.0, containing NaCl (0.10 M). Fluorescence data were fitted to the equation: kcat/KM=(ΔI/Δt)/(If−I0)[E], in which ΔI/Δt is the initial reaction velocity, I0 is the fluorescence intensity before addition of ribonuclease, If is the fluorescence intensity after complete substrate hydrolysis, and [E] is the total ribonuclease concentration. The assay was performed in triplicate.

[5] = 5 μM, 4 h, relative to unmodified RNase A

B1: benzoboroxole-boronated RNase A: RNase A with 5-amino-2-hydroxymethylphenylboronic acid conjugated to protein carboxyl groups by carbodiimide condensation (conjugate, UniProt P61823 27-150, looked up)
Ribonuclease pancreatic: KETAAAKFERQHMDSSTSAASSSNYCNQMMKSRNLTKDRCKPVNTFVHESLADVQAVCSQKNVACKNGQTNCYQSYSTMSITDCRETGSSKYPNCAYKTTQANKHIIVACEGNPYVPVHFDASV
modifications: benzoboroxole conjugated to carboxyl groups
notes: RNase A with 5-amino-2-hydroxymethylphenylboronic acid conjugated to protein carboxyl groups by carbodiimide condensation
increase in cellular uptake [1, 5]: 4- to 5 fold | effect of fructose on enhancement of cellular uptake ([1]; fructose 0.25 M): eliminated | increase in cellular uptake [2, 5]: 4- to 5 fold | effect of fructose on enhancement of cellular uptake ([2]; fructose 0.25 M): eliminated | retention on column of heparin in presence of fructose [3]: diminishing retention | retention on column of heparin in presence of fructose ([3]; listed as boronated RNAse A): diminished the retention | retention on column of heparin ([3]; versus unmodified RNase A, NaCl gradient in PBS): retained longer | ribonucleolytic activity retained [4]: 17±2%
